Measured values as given in patent publication US20230093708A1, “PROTEIN NANOPARTICLE DESIGN AND APPLICATION” (Duke University, priority 2020, published 2023).

Legend:
[1] = Temperature-programmed dynamic light scattering; assay type: physicochemical; settings: between 4 °C and 37 °C; micelles 20-37 °C; 10 μM in 140 mM PBS
Description: Temperature-programmed dynamic light scattering experiments were carried out using a Dynapro plate reader (Wyatt Technology; Santa Barbara, Calif.) with samples filtered through 0.45 μm Millex-GV filters. Data were collected at increments of 1° C., and the cumulant fit hydrodynamic radius was taken as the radius. The Tt was defined as the temperature at which aggregates of size hundreds of nanometers were formed.
Each block co-polypeptide was analyzed by dynamic light scattering (DLS) at several temperatures between 4° C. and 37° C. to determine the thermal stability of the micelles, and to determine their radius of hydration (Rh). […] In contrast, RLP40-ELP80 (SEQ ID NO: 84) and RLP40-ELP80-Fn3 (SEQ ID NO: 96) self-assembled into micelles with a Rh of 30 and 32 nm, respectively, between 20-37° C. (FIG. 15).
Therefore, to get a more accurate picture, we monitored the Rh as we slowly cooled the solution. We observed two different overall behaviors. [S]-40-[QHN]-40 (SEQ ID NO: 100) upon cooling underwent a clear unimer to micelle transition at ˜55° C. and a clear micelle to aggregate transition at 28° C. (FIG. 32B). A unimer to micelle transition that is temperature dependent is known as the critical micellization temperature (CMT). As we know from before, this UCST aggregation temperature is dependent on the solution concentration. [S]-80-[QHN]-40 (SEQ ID NO: 101) remained a micelle at the highest temperature we could measure with the instrument. Upon cooling the size of the aggregate increased slightly until a clear aggregate transition at 18° C.

[2] = Cryo-TEM micelle core size, inter-core spacing and aspect ratio; assay type: physicochemical
Procedure, shortened: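 Vitrified 10 μM RLPn-ELP80 (3 s blot, chamber at 15° C., 100% humidity) imaged by cryo-TEM at 80 keV. Core size and spacing measured manually on at least 25 particles; aspect ratio from the longest straight line of a particle and its perpendicular.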

[3] = system: K562+αvβ3 cell line; assay: Flow cytometry cell uptake of Alexa488-labeled micelles; assay type: cell-based; settings: 10 μM, 37 °C, 2 hours
Description: Approximately 1×10^8 cells were harvested from either K562 or K562+αvβ3 cell lines and resuspended into 1 mL of serum-free medium containing 10 μM of the various Fn3-decorated and control block polypeptides. LM609 antibody was also resuspended at 10 μM in serum-free medium. Micelles were prepared from a mixture of ˜10% Alexa 488 dye-labeled RLP-ELP block co-polypeptides and 90% unlabeled polypeptides on a molar basis. The cells were incubated at 37° C. with the labeled micelles for a specified time, then rinsed with 1 mL of Hanks Buffered Saline Solution (HBSS), collected by centrifugation at 500 RCF for 5 min at 20° C., and resuspended in HBSS+1% BSA. Cells were maintained on ice until they were analyzed by flow cytometry (BD Accuri C5). The cell fluorescence intensity of Alexa 488 (Green) was quantified after gating to remove cellular debris on unstained control samples.
To assess the intracellular uptake of these particles, we used a cell line stably transfected with the αvβ3 integrin. The native cell line, K562, has endogenously low levels of expression of this receptor and therefore serves as the receptor-negative control, and the un-decorated RLPXX-ELP80 micelles serve as ligand-negative controls for each type—size and shape—of micelle. […]

[4] = Static and dynamic light scattering (SLS/DLS) of block co-polypeptides; assay type: physicochemical; settings: Table 1
Procedure, shortened: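 Samples at 10 μM in PBS (140 mM NaCl, 10 mM phosphate, 3 mM KCl, pH 7.4), filtered 0.45 μm, measured at 15 °C over 30°–150° in 5° steps. Rh from cumulant fit of DLS, extrapolated to zero angle. Rg and MW from partial Zimm plots of SLS.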

[5] = Table 8, 15 °C, 140 mM PBS, 10 μM

B1: RLP40-ELP80: RLP-ELP block co-polypeptide forming spherical micelles (protein)
chain: QYPSDGRGQYPSDGRGQYPSDGRGQYPSDGRGQYPSDGRGQYPSDGRGQYPSDGRGQYPSDGRGQYPSDGRGQYPSDGRGQYPSDGRGQYPSDGRGQYPSDGRGQYPSDGRGQYPSDGRGQYPSDGRGQYPSDGRGQYPSDGRGQYPSDGRGQYPSDGRGQYPSDGRGQYPSDGRGQYPSDGRGQYPSDGRGQYPSDGRGQYPSDGRGQYPSDGRGQYPSDGRGQYPSDGRGQYPSDGRGQYPSDGRGQYPSDGRGQYPSDGRGQYPSDGRGQYPSDGRGQYPSDGRGQYPSDGRGQYPSDGRGQYPSDGRGQYPSDGRGGAGVPGGGVPGAGVPGGGVPGAGVPGGGVPGAGVPGGGVPGAGVPGGGVPGAGVPGGGVPGAGVPGGGVPGAGVPGGGVPGAGVPGGGVPGAGVPGGGVPGAGVPGGGVPGAGVPGGGVPGAGVPGGGVPGAGVPGGGVPGAGVPGGGVPGAGVPGGGVPGAGVPGGGVPGAGVPGGGVPGAGVPGGGVPGAGVPGGGVPGAGVPGGGVPGAGVPGGGVPGAGVPGGGVPGAGVPGGGVPGAGVPGGGVPGAGVPGGGVPGAGVPGGGVPGAGVPGGGVPGAGVPGGGVPGAGVPGGGVPGAGVPGGGVPGAGVPGGGVPGAGVPGGGVPGAGVPGGGVPGAGVPGGGVPGAGVPGGGVPGAGVPGGGVPGAGVPGGGVPGAGVPGGGVPGAGVPGGGVPGAGVPGGGVPGAGVPGGGVPGAGVPGGGVPGAGVPGGGVPGAGVPGGGVPGAGVPGGGVPGAGVPGGGVPGAGVPGGGVPGAGVPGGGVPGAGVPGGGVPGAGVPGGGVPGAGVPGGGVPGAGVPGGGVPGAGVPGGGVPGAGVPGGGVPGAGVPGGGVPGAGVPGGGVPGAGVPGGGVPGAGVPGGGVPGAGVPGGGVPGAGVPGGGVPGAGVPGGGVPGAGVPGGGVPGAGVPGGGVPGAGVPGGGVPGAGVPGGGVPGAGVPGGGVPGAGVPGGGVPGAGVPGGGVPGAGVPGGGVPGAGVPGGGVPGAGVPGGGVPGAGVPGGGVPGAGVPGGGVPGAGVPGGGVPGAGVPGGGVPGAGVPGGGVPGAGVPGGGVPGAGVPGGGVPGAGVPGGGVP
Rh (DLS at several temperatures) [1]: 30 nm | core radius (cryo-TEM) [2]: approximately 12.8 nm | spacing between particle cores (cryo-TEM) [2]: 29.5 nm | Spacing (nm) ([2]; Table 2, inter-core spacing, mean ± standard deviation): 29.5 ± 4.8 nm | Core radius (nm) ([2]; Table 2, mean ± standard deviation, 10 μM in 140 mM PBS): 12.8 ± 1.8 nm | Core Diameter (nm) [n = 30] [2, 5]: 24.3 ± 2.8 nm | Intra-core Spacing (nm) [n = 30] [2, 5]: 23.6 ± 4.5 nm | cell fluorescence (Geometric Mean±StDev) [3]: 8686±8787 | Nagg ([4]; 10 μM in PBS, 15 °C): 68 | Rg(nm) ([4]; 10 μM in PBS, 15 °C): 29.9 nm | Rh (nm) ([4]; 10 μM in PBS, 15 °C): 33.3 nm | ρ ([4]; shape factor Rg/Rh): 0.89
